# From patent US20220119521A1 (Pfizer, published 2022)
# Changes are numbered by the printed parent chain.
# T1: chimeric cynomolgus/human MAdCAM (cynomolgus; human, UniProt Q13477 226-382, limits assumed)
# T1 sequence: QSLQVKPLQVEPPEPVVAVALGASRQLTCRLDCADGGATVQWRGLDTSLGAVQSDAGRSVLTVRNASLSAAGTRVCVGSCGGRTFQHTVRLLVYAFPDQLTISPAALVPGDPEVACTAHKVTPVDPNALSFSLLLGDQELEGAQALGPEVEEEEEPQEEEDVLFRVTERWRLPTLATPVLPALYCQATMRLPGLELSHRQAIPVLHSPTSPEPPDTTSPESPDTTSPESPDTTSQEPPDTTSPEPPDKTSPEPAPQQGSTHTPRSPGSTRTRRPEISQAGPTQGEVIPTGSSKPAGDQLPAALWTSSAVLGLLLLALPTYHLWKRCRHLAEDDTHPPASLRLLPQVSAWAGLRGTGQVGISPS
# B1: anti-MAdCAM monoclonal antibody 7.26.4 (antibody, human IgG2, kappa, V domains shown)
# VH: QVQLVQSGAEVKKPGASVKVSCEASGYTFTSYGIDWVRQAPGQGLEWMGWISVYSGNTNYAQKLQGRVTMSTDTSTSTAYMELRSLRSDDTAVYYCAREGSSSSGDYYYGMDVWGQGTTVTVSS
# VL: DIVMTQTPLSLSVTPGQPASISCKSNQSLLYSDGKTYLFWYLQKPGQPPQLLIYEVSNRFSGVPDRFSGSGSGTDFTLKISRVEAEDVGVYYCMQSIQLPWTFGQGTKVEIKR
# B2: anti-MAdCAM monoclonal antibody 6.77.1 (antibody, human IgG4, kappa, V domains shown)
# VH: EVQLVESGGGLVKPGGSLRLSCAASGFTFSSYSMNWVRQAPGKGLEWVSSISSSSSYIYYADSVKGRFTISRDNAKNSLYLQMNSLRAEDTAVYYCARDGYSSGWSYYYYYGMDVWGQGTTVTVSS
# VL: B1 VL with K24N, N26S, Y31L, F39N, Y92S, P100M, W101C, T102S, V109L
# B3: anti-MAdCAM monoclonal antibody 6.14.2 (antibody, human IgG4, kappa, V domains shown)
# VH: EVQLLESGGGLVQPGGSLRLSCAASGLTFNNSAMTWVRQAPGKGLEWVSTTSGSGGTTYYADSVKGRFTISRDSPKNTLYLQMNSLRAEDTAVYYCAARGYSYGTTPYEYWGQGTLVTVSS
# VL: DIQMTQSPSSLSASVGDRVTITCRASRSISSYLNWYQQKPGKAPKVLIFFVSSLQSGVPSRFSGSGSGTDFTLTISSLQPEDFATYYCQQNYIPPITFGQGTRLEIRR
# B4: anti-MAdCAM monoclonal antibody 6.22.2 (antibody, human IgG4, kappa, V domains shown)
# VH: QVQLVESGGGVVQPGRSLRLSCAASGHTFSSDGMHWVRQAPGKGLEWVAIIWYDGSNKYYADSVKGRFTISRDNSKNTLYLQMNSLRAEDTAVYYCARDPGYYYGMDVWGQGTTVTVSS
# VL: EIVLTQSPDFQSVTPKEKVTITCRASQRIGSSLHWYQQKPDQSPKLLIKYASQSFSGVPSRFSGSGSGTNFTLTINGLEAEDAATYYCHQSGRLPLTFGGGTKVEIKR
# B5: anti-MAdCAM monoclonal antibody 6.34.2 (antibody, human IgG4, kappa, V domains shown)
# VH: QVQLVESGGGVVQPGRSLRLSCAASGFTFSSYGMHWVRQAPGKGLEWVAVISNDGNNKYYADSVKGRFTISRDNSKNTLYLQMNSLSAEDTAVYYCARDSTAITYYYYGMDVWGQGTTVTVSS
# VL: DIQMTQSPSSLSASVGDRVTITCRASQNISSYLNWFQQKPGKAPKLLIYAASGLKRGVPSRFSGSGSGTDFTLTIRTLQPDDFATYSCHQSYSLPFTFGPGTKVDIKR
# B6: anti-MAdCAM monoclonal antibody 6.67.1 (antibody, human IgG4, kappa, V domains shown)
# VH: QVQLQESGPGLVKPSETLSLTCTVSGDSISSNYWSWIRQPAGKGLEWIGRIYTSGGTNSNPSLRGRVTILADTSKNQFSLKLSSVTAADTAVYYCARDRITIIRGLIPSFFDYWGQGTLVTVSS
# VL: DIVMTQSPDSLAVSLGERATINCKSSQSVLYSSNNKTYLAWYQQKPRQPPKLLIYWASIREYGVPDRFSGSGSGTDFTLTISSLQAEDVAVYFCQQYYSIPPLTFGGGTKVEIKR
# B7: anti-MAdCAM monoclonal antibody 9.8.2 (antibody, human IgG4, kappa, V domains shown)
# VH: QVQLVESGGGVVQPGRSLRLSCAASGFTFSSYGMHWVRQAPGKGLEWVAVIWYDGSNEYYADSVKGRFTISRDNSKNTLYLQMNSLRAEDTAVYYCARGAYHFAYWGQGTLVTVSS
# VL: DIQMTQSPSSLSASVGDRVTITCQASQDISNYLNWYQQKPGKAPKLLIYDASNLETGVPSRFSGSGSGTDFTFTISSLQPEDIATYSCQHSDNLSITFGQGTRLEIKR
# B8: anti-MAdCAM monoclonal antibody 7.20.5 (antibody, human IgG2, kappa, V domains shown)
# VH: QVQLQESGPGLVKPSETLSLTCTVSGSSISSYHWNWIRQPAGKGLEWIGRIYTSGSTNYNPSLKSRVTMSLDTSKNQFSLKLSSVTAADTAVYYCAREGVRYYYASGSYYYGLDVWGQGTTVTVSS
# VL: not shown
# B9: anti-MAdCAM monoclonal antibody 1.7.2 (antibody, human IgG2, kappa, V domains shown)
# VH: EVQLVESGGGLVKPGGSLRLSCVASGFTFTNAWMIWVRQAPGKGLEWVGRIKRKTDGGTTDYAAPVKGRFTISRDDSKNTLYLQMNSLKTEDTAVYYCTTGGVAEDYWGQGTLVTVSS
# VL: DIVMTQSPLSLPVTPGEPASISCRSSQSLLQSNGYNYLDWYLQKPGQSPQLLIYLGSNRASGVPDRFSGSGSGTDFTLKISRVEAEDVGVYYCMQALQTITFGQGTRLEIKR
# B10: anti-MAdCAM monoclonal antibody 1.8.2 (antibody, human IgG2, kappa, V domains shown)
# VH: B9 VH with A24V
# VL: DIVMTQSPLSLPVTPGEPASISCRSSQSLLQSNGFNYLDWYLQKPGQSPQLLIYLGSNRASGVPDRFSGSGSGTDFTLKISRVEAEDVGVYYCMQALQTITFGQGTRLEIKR
# Molecular target: T1, chimeric cynomolgus/human MAdCAM
# Experiment: cell-based or functional assay
row,"Functional IC50 (µg/mL), cynomolgus/human MAdCAM-CHO/JY adhesion assay",Binder
1,0.96 µg/mL,B1
2,0.64 µg/mL,B2
3,0.53 µg/mL,B3
4,0.83 µg/mL,B4
5,0.47 µg/mL,B5
6,0.75 µg/mL,B6
7,0.83 µg/mL,B7
8,0.62 µg/mL,B8

# Molecular target: MAdCAM-IgG1 Fc fusion protein (human)
# Experiment: cell-based or functional assay
row,"Mean IC50, α4β7+ JY cell adhesion to coated MAdCAM IgG1 Fc fusion",Binder
1,0.021 µg/mL,B1
2,0.03 µg/mL,B9
3,0.027 µg/mL,B10
4,0.025 µg/mL,B8
